Targets include HLA-A*33:01; HLA-A*31:01; HLA-A*03:01; HLA-A*68:01; HLA-A*11:01.
Holding throughout (test): IEDB peptide-MHC binding, purified MHC/competitive/radioactivity; filed as Kd, often an IC50 or EC50 that approximates it; ≥ and ≤ were set here for values at or beyond the usual limits of such assays
Where [1] appears, read: source organism: Dengue virus 3 Martinique/1243/1999.
Where [2] appears, read: source organism: SARS coronavirus Tor2.
The mark [3] stands for this setting: source organism: Vaccinia virus WR.
[4] abbreviates: source organism: Dengue virus 1 Brazil/97-11/1997.
Setting [5] is: source organism: Dengue virus 1 Singapore/S275/1990.

Turning to AIWYMWLGAR, the Kd with HLA-A*33:01 (setting [1]) worked out at 57.3 nM; with HLA-A*31:01 (setting [1]), 42.3 nM.

Consider ALAFHLTSR, for which, in the experiment with HLA-A*03:01 (setting [1]), the Kd came to 34.9 nM.

AQPLPQRQK: the equilibrium dissociation constant (Kd) in the experiment with HLA-A*68:01 (setting [2]) was 3030 nM; with HLA-A*33:01 (setting [2]), not below 77700 nM; with HLA-A*03:01 (setting [2]), not below 23600 nM; with HLA-A*11:01 (setting [2]), 879 nM; with HLA-A*31:01 (setting [2]), not below 53200 nM.

For the sequence ASGNLLLDK, the Kd is not below 38100 nM with HLA-A*68:01 (setting [2]); not below 77700 nM with HLA-A*33:01 (setting [2]); 694 nM in the experiment with HLA-A*03:01 (setting [2]); 29.8 nM with HLA-A*11:01 (setting [2]); 13500 nM with HLA-A*31:01 (setting [2]).

On to ATNNVFRLK, for which the results for the Kd with HLA-A*68:01 (setting [2]), in the experiment with HLA-A*33:01 (setting [2]) and in the experiment with HLA-A*31:01 (setting [2]) were 11.6 nM, 6410 nM and 2.57 nM, respectively.

With AVHECFVKR, the Kd was determined as 79.6 nM with HLA-A*68:01 (setting [2]); 1270 nM with HLA-A*33:01 (setting [2]); 3320 nM with HLA-A*03:01 (setting [2]); 440 nM in the experiment with HLA-A*11:01 (setting [2]); 39 nM with HLA-A*31:01 (setting [2]).

In the case of AVRYYDGNIY, the Kd is 3040 nM in the experiment with HLA-A*68:01 (setting [3]); not below 70000 nM in the experiment with HLA-A*33:01 (setting [3]); 2500 nM with HLA-A*03:01 (setting [3]); 272 nM with HLA-A*11:01 (setting [3]); not below 70000 nM in the experiment with HLA-A*31:01 (setting [3]).

For the sequence AVVADLSAR, the Kd with HLA-A*68:01 (setting [3]) came to 6.45 nM; with HLA-A*33:01 (setting [3]) it was 712 nM; in the experiment with HLA-A*03:01 (setting [3]), 141 nM; in the experiment with HLA-A*11:01 (setting [3]) it was 51.8 nM; with HLA-A*31:01 (setting [3]) it was 26.6 nM.

With CAGVIEYAK, the dissociation constant (Kd) in the experiment with HLA-A*68:01 (setting [3]) is 51.1 nM; with HLA-A*33:01 (setting [3]) it was 1190 nM; in the experiment with HLA-A*03:01 (setting [3]), 988 nM; with HLA-A*11:01 (setting [3]), 192 nM; in the experiment with HLA-A*31:01 (setting [3]) it was 2220 nM.

With DFRNRYEDY, the Kd is 3700 nM in the experiment with HLA-A*68:01 (setting [3]); 96.4 nM with HLA-A*33:01 (setting [3]); 2770 nM with HLA-A*03:01 (setting [3]); 7930 nM in the experiment with HLA-A*11:01 (setting [3]); not below 77900 nM with HLA-A*31:01 (setting [3]).

Regarding DLVKSSFVK, the Kd with HLA-A*68:01 (setting [3]) was found to be 77 nM; with HLA-A*33:01 (setting [3]), 905 nM; in the experiment with HLA-A*03:01 (setting [3]), 1790 nM; with HLA-A*11:01 (setting [3]), 127 nM; with HLA-A*31:01 (setting [3]) it was 94.2 nM.

Take DLVKSYSLIR: the Kd is 1630 nM with HLA-A*68:01 (setting [3]); 579 nM with HLA-A*33:01 (setting [3]); not below 10000 nM in the experiment with HLA-A*03:01 (setting [3]); 6720 nM with HLA-A*11:01 (setting [3]); 173 nM in the experiment with HLA-A*31:01 (setting [3]).

In the case of DTRTPRAKR, the dissociation constant Kd in the experiment with HLA-A*33:01 (setting [4]) is 29.8 nM.

With EATARGARR, the dissociation constant Kd in the experiment with HLA-A*68:01 (setting [4]) came to 12.5 nM; with HLA-A*33:01 (setting [4]) it was 36.7 nM.

Take EGAWKHAQR: the Kd in the experiment with HLA-A*68:01 (source organism: Dengue virus 4 Philippines/H241/1956) worked out at 115 nM.

Turning to EILKINSVK, the equilibrium dissociation constant (Kd) is 2.64 nM with HLA-A*68:01 (setting [3]); 549 nM in the experiment with HLA-A*33:01 (setting [3]); 713 nM with HLA-A*03:01 (setting [3]); 1540 nM in the experiment with HLA-A*11:01 (setting [3]); 2080 nM in the experiment with HLA-A*31:01 (setting [3]).

Regarding EMGANFKAER, the Kd with HLA-A*33:01 (source organism: Dengue virus 2 Jamaica/1409/1983) was 15.5 nM.

As to ETKITFALKK, the Kd was determined as 74.8 nM with HLA-A*68:01 (setting [3]); 3200 nM with HLA-A*33:01 (setting [3]); 1230 nM with HLA-A*03:01 (setting [3]); 93.1 nM with HLA-A*11:01 (setting [3]); 8270 nM in the experiment with HLA-A*31:01 (setting [3]).

For the sequence FINFFNLLAK, the Kd came to 6.53 nM with HLA-A*68:01 (setting [3]); 427 nM in the experiment with HLA-A*33:01 (setting [3]); 8.96 nM with HLA-A*03:01 (setting [3]); 0.273 nM in the experiment with HLA-A*11:01 (setting [3]); 1820 nM in the experiment with HLA-A*31:01 (setting [3]).

As to FLYLYALIY, the Kd with HLA-A*68:01 (setting [2]) is not below 44400 nM; with HLA-A*33:01 (setting [2]), 17900 nM; in the experiment with HLA-A*03:01 (setting [2]), 6630 nM; with HLA-A*11:01 (setting [2]), 16300 nM; with HLA-A*31:01 (setting [2]), 16900 nM.

Regarding FSKNILKYY, the Kd with HLA-A*68:01 (setting [3]) is 5490 nM; with HLA-A*33:01 (setting [3]) it was not below 77700 nM; in the experiment with HLA-A*03:01 (setting [3]), not below 21200 nM; with HLA-A*11:01 (setting [3]), not below 28900 nM; with HLA-A*31:01 (setting [3]) it was 16300 nM.

For FSKSTSPTR, the Kd in the experiment with HLA-A*68:01 (setting [3]) is 9.78 nM; with HLA-A*33:01 (setting [3]) it was 387 nM; in the experiment with HLA-A*03:01 (setting [3]), not below 42200 nM; with HLA-A*11:01 (setting [3]), 12300 nM; with HLA-A*31:01 (setting [3]), 20.6 nM.

As to FSNTILLSDK, the Kd was 100 nM in the experiment with HLA-A*68:01 (setting [3]); not below 62600 nM with HLA-A*33:01 (setting [3]); 25.5 nM with HLA-A*03:01 (setting [3]); 1.96 nM with HLA-A*11:01 (setting [3]); 1260 nM with HLA-A*31:01 (setting [3]).

Take FVKKFGLCNY: the Kd was not below 37100 nM with HLA-A*68:01 (setting [3]); not below 45100 nM in the experiment with HLA-A*33:01 (setting [3]); not below 22800 nM with HLA-A*03:01 (setting [3]); 15100 nM with HLA-A*11:01 (setting [3]); 12200 nM in the experiment with HLA-A*31:01 (setting [3]).

Regarding GFMRFFQLLR, the Kd in the experiment with HLA-A*68:01 (setting [3]) came out at 2410 nM; with HLA-A*33:01 (setting [3]), 86.3 nM; with HLA-A*03:01 (setting [3]), 526 nM; with HLA-A*11:01 (setting [3]), 937 nM; in the experiment with HLA-A*31:01 (setting [3]), 53.7 nM.

With GLAMGIMILK, the Kd with HLA-A*03:01 (setting [5]) worked out at 20.7 nM; in the experiment with HLA-A*11:01 (setting [5]) it was 69.8 nM.

Turning to GLSETGFMR, the dissociation constant (Kd) in the experiment with HLA-A*68:01 (setting [3]) is 2130 nM; with HLA-A*33:01 (setting [3]), 155 nM; with HLA-A*03:01 (setting [3]), 16300 nM; in the experiment with HLA-A*11:01 (setting [3]) it was 2710 nM; with HLA-A*31:01 (setting [3]) it was 85.5 nM.

Values taken from the Immune Epitope Database (IEDB).
